Source: the supplement of paper PMC12764529
± gives the half width of the 95% confidence interval.

How the values were obtained:
[1] = folding stability dG unfold from trypsin proteolysis; higher = more stable
In short: (§1)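 Unfolding free energy was derived, per protease or combined, against a sequence-predicted unfolded-state K50 and a shared folded-state K50, starting from K50 inferred by Bayesian fitting of sequencing counts. Digestion with trypsin and chymotrypsin was carried out on designed mini-proteins under 80 residues without cysteine in a PA-tagged cDNA display construct. Only designs with AlphaFold2 dimer inter-PAE above 15 were kept.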

[2] = folding stability dG unfold from chymotrypsin proteolysis; higher = more stable
In short: as §1

[3] = folding stability dG unfold (combined trypsin and chymotrypsin); higher = more stable
In short: as §1

Sequence	folding stability dG unfold [1]	folding stability dG unfold [2]	folding stability dG unfold [3]
SAPQIVEVKEYDPVSKTYTILAETPEGPLTVPVPAGGDTTVEEAIEQVKEYFEKTLPPGVELEIEKILLSAG [r14_422_JUSTAS]	0.355 ± 0.08 kcal/mol	0.271 ± 0.14 kcal/mol	0.418 ± 0.093 kcal/mol
SAGGSAGGSAGGSKKKKKKKKKKVVKLTVLIEKDGELYLVEIEFDKDGKIVSISVEKLPSAGGSAGGSAGGS [r4_192_TrROS_Hall]	2.12 ± 0.16 kcal/mol	4 ± 0.27 kcal/mol	3.27 ± 0.32 kcal/mol
SAGGSAGGSMTVTVRRVYFPPNLAEGMTVEELRKKLGVPDLPVLVVDVEVTLTPEELEALLKESAGGSAGGS [r12_178_TrMRF]	1.39 ± 0.041 kcal/mol	2.21 ± 0.036 kcal/mol	1.97 ± 0.05 kcal/mol
SAGGEPVKFIPPGWKITLTTPDGRPLTFTLPANATPEDFKSLELPGDHELEFVEFLPDGTILVRSPKSAGGS [r16_103_TrMRF]	0.948 ± 0.088 kcal/mol	1.2 ± 0.18 kcal/mol	1.12 ± 0.11 kcal/mol
SAGGSAGGSAGGDPKKKKGGTFTLTFKLKFTVNIPEGKVEYEFKAKIKITINEPPDFGLSSAGGSAGGSAGG [r7_485_TrMRF]	3.81 ± 0.2 kcal/mol	5.81 ± 0.23 kcal/mol	5.67 ± 0.3 kcal/mol
SAGGSAGGSAGGERVVRFPYTGTLEDVLEAARRLRRLGGVEVGYDPENGVLLARFKGGGLSAGGSAGGSAGG [r7_219_TrMRF]	0.54 ± 0.056 kcal/mol	1.6 ± 0.046 kcal/mol	1.25 ± 0.049 kcal/mol
SAKKENSVPVTIEIELEFDSIEKAKKAIEKLAAEIEKETGAKIEIKVEIEEKENNYIVKVELTIYLPKESAG [r14_626_TrMRF]	1.6 ± 0.06 kcal/mol	1.55 ± 0.051 kcal/mol	1.64 ± 0.077 kcal/mol
SAGGSAGGSASPQVVEVLSTVPLPGSNIVIEKTSDASGNSYVYDPNTGKWFSPEEAKKLLSSAGGSAGGSAG [r3_206_JUSTAS]	0.84 ± 0.057 kcal/mol	1.73 ± 0.077 kcal/mol	1.5 ± 0.1 kcal/mol
SKKKKKKKKKKVIIKIKKDGKEIYIEMTVEEIKELLKKGVKKIEIYSPSEEEKEKIKKLLEEEGVEVEEVSA [r9_810_TrROS_Hall]	2 ± 0.1 kcal/mol	1.71 ± 0.07 kcal/mol	1.78 ± 0.18 kcal/mol
SAGGMTLEELAARVGRVEVEEAEDGGRVLRVTIPLAGPGGPPAPRTFLIEIPPDRPDLTIAEVLARLGSAGG [r13_319_TrMRF]	1.38 ± 0.064 kcal/mol	1.84 ± 0.057 kcal/mol	1.66 ± 0.07 kcal/mol
SAGGSAGGKKKVLLVKVEIELPNGEKLELVAESEEEALEALKKLLEKKGLKIKKVEIVELEEKESAGGSAGG [r6_405_TrROS_Hall]	1.64 ± 0.071 kcal/mol	2.41 ± 0.051 kcal/mol	2.17 ± 0.077 kcal/mol
SAGGDKKWTAEFDVRKRDDTVEVTLTFTDPNGNETTETYTLTDDELAKLLAELPPEFKNVTRNEVLESAGGS [r16_298_JUSTAS]	1.57 ± 0.043 kcal/mol	2.04 ± 0.11 kcal/mol	1.85 ± 0.16 kcal/mol
SAGGKKKTAEELAEELKKKLEELGFKVVKIEKLPDGTVLITFEDGYVIKFDVKTGKITIMPKEELEKLSAGG [r13_717_TrROS_Hall]	1.62 ± 0.11 kcal/mol	2.16 ± 0.029 kcal/mol	1.96 ± 0.079 kcal/mol
SAGGSAGGRVVLSAEEIEKLKPGDEIELLVRDKETGEWRRVKARVVRIERVGDRVYVEIEIEPESAGGSAGG [r6_753_TrROS_Hall]	4.53 ± 0.25 kcal/mol	4.19 ± 0.057 kcal/mol	4.29 ± 0.12 kcal/mol
SAGGSAGGSAMLYRITVRNADGEKLEIVVEMSEDEVRALAEELRKAGYEVRVEPIPEGEEPSAGGSAGGSAG [r3_35_TrROS_Hall]	4.89 ± 0.21 kcal/mol	4.79 ± 0.11 kcal/mol	4.8 ± 0.15 kcal/mol
SAGGSAGGSAGEEKEYRIVVPFDSDDPEAFVRAVFDGIPPDVPIKAIDFNPELGYGVVVASAGGSAGGSAGG [r11_698_TrMRF]	0.364 ± 0.091 kcal/mol	1.07 ± 0.072 kcal/mol	0.892 ± 0.11 kcal/mol
SAGGSAGGSAGGMIIIIPTPKGTVALVIDENSDKPTLIEASPDEIPDLIEKGAKEVIILPSAGGSAGGSAGG [r7_266_TrMRF]	0.363 ± 0.072 kcal/mol	1.22 ± 0.052 kcal/mol	0.932 ± 0.13 kcal/mol
SAGGSAGGSGSLLEKLGLEPNSTVTVTVTPEEAEKIRAEPRVKEIKREPTPEDTYLYTITVVASAGGSAGGS [r12_750_JUSTAS]	-0.705 ± 0.32 kcal/mol	0.0205 ± 0.2 kcal/mol	-0.302 ± 0.28 kcal/mol
SAGGSAGSMSEIEGLTVLEEREEPDPATGTTVPTLVVRDPEKGELYVITATTDPATGKPTYSFDLVSAGGSA [r15_170_JUSTAS]	0.871 ± 0.03 kcal/mol	0.0106 ± 0.072 kcal/mol	0.595 ± 0.047 kcal/mol
SAGGSAGGSAGGSMPVKLDEIIDYDPKKKVLTVLLTHPDGSKSLVVVPGKSIEEIKEANSAGGSAGGSAGGS [r4_357_TrMRF]	0.314 ± 0.029 kcal/mol	0.709 ± 0.029 kcal/mol	0.648 ± 0.098 kcal/mol
